{"source": "paper PMC8437784", "about": "(The Journal of Biological Chemistry, 2020)", "binders": {"B1": {"name": "Recombinant N-terminal His6-tagged TRF1 (from human) (natural protein, UniProt P54274 1-439, looked up)", "chain": "MAEDVSSAAPSPRGCADGRDADPTEEQMAETERNDEEQFECQELLECQVQVGAPEEEEEEEEDAGLVAEAEAVAAGWMLDFLCLSLCRAFRDGRSEDFRRTRNSAEAIIHGLSSLTACQLRTIYICQFLTRIAAGKTLDAQFENDERITPLESALMIWGSIEKEHDKLHEEIQNLIKIQAIAVCMENGNFKEAEEVFERIFGDPNSHMPFKSKLLMIISQKDTFHSFFQHFSYNHMMEKIKSYVNYVLSEKSSTFLMKAAAKVVESKRTRTITSQDKPSGNDVEMETEANLDTRKSVSDKQSAVTESSEGTVSLLRSHKNLFLSKLQHGTQQQDLNKKERRVGTPQSTKKKKESRRATESRIPVSKSQPVTPEKHRARKRQAWLWEEDKNLRSGVRKYGEGNWSKILLHYKFNNRTSVMLKDRWRTMKKLKLISSDSED"}, "B2": {"name": "N-terminal HA-tagged TIN2S (HA-TIN2S, 1-354 aa) (natural protein, human, UniProt Q9BSI4-2 1-354, looked up)", "chain": "MATPLVAGPAALRFAAAASWQVVRGRCVEHFPRVLEFLRSLRAVAPGLVRYRHHERLCMGLKAKVVVELILQGRPWAQVLKALNHHFPESGPIVRDPKATKQDLRKILEAQETFYQQVKQLSEAPVDLASKLQELEQEYGEPFLAAMEKLLFEYLCQLEKALPTPQAQQLQDVLSWMQPGVSITSSLAWRQYGVDMGWLLPECSVTDSVNLAEPMEQNPPQQQRLALHNPLPKAKPGTHLPQGPSSRTHPEPLAGRHFNLAPLGRRRVQSQWASTRGGHKERPTVMLFPFRNLGSPTQVISKPESKEEHAIYTADLAMGTRAASTGKSKSPCQTLGGRALKENPVDLPATEQKE"}, "B3": {"name": "48 bp telomeric dsDNA, 3 TTAGGG (dsDNA)", "DNA 1": "TTAGGGTTAGGGTTAGGGATGTCCAGCAAGCCAGAATTCGGCAGCGTA", "DNA 2": "TACGCTGCCGAATTCTGGCTTGCTGGACATCCCTAACCCTAACCCTAA"}}, "key": {"[1]": {"molecular_target": "T1, Recombinant N-terminal His6-tagged TRF1 (from human) (human), P54274", "T1 chain": "B1 chain", "test": "AFM volume analysis", "settings": "remark: other sources report otherwise"}, "[2]": {"molecular_target": "T2, N-terminal HA-tagged TIN2L (HA-TIN2L, 1-451 aa) (human, UniProt Q9BSI4-1 1-451)", "T2 sequence (looked up)": "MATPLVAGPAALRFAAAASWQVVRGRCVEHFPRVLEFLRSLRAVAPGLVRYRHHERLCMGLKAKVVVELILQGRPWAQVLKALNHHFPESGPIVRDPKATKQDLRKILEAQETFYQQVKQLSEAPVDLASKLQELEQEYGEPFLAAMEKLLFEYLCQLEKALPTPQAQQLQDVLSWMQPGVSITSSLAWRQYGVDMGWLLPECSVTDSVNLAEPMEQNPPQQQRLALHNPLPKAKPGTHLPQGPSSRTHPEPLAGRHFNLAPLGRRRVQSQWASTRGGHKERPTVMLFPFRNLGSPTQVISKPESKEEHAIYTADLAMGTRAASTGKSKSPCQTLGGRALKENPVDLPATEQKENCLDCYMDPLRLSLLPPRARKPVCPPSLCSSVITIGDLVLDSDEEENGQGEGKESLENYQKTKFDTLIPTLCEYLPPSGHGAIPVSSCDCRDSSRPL", "test": "DNA tightrope assay"}, "[3]": {"molecular_target": "B1", "test": "DNA tightrope assay"}, "TIN2S": {"molecular_target": "T3, TIN2S (UniProt Q9BSI4-2 1-354)", "T3 sequence": "B2 chain", "test": "EMSA"}, "TIN2L": {"molecular_target": "T4, TIN2L (UniProt Q9BSI4 1-451)", "T4 sequence": "T2 sequence (looked up)", "test": "EMSA"}, "TRF1": {"molecular_target": "TRF1 (human, UniProt P54274 1-439)", "test": "EMSA"}, "TRF1;TIN2S": {"molecular_target": "TRF1;TIN2S (human;human?, UniProt P54274;Q9BSI4-2 1-439;1-354, |)", "test": "EMSA"}, "TRF1;TIN2L": {"molecular_target": "TRF1;TIN2L (human;human?, UniProt P54274;Q9BSI4 1-439;1-451, |)", "test": "EMSA"}}, "data": [{"binder": "B1", "values": [{"measurement": "stoichiometry N", "setting": "[1]", "value": 2}, {"measurement": "binding result", "setting": "[2]", "value": "binds"}]}, {"binder": "B2", "values": [{"measurement": "binding result", "setting": "[3]", "value": "binds"}]}, {"binder": "B3", "values": [{"measurement": "binding result", "setting": "TIN2S", "value": "no binding"}, {"measurement": "binding result", "setting": "TIN2L", "value": "no binding"}, {"measurement": "binding result", "setting": "TRF1", "value": "binds"}, {"measurement": "binding result", "setting": "TRF1;TIN2S", "value": "binds"}, {"measurement": "binding result", "setting": "TRF1;TIN2L", "value": "binds"}]}]}
